Reference: the supplement of paper PMC9732359
± gives the uncertainty stated by the source.

Assay: protein stability index of a GFP-peptide fusion (yeast GPS) (PSI 1-4); higher = more stable; sorted into four equal gates, so the index is relative within each strain
Outline: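 The protein stability index combines read frequencies across sorting gates, each weighted by its gate number and then summed. To obtain those frequencies, a pooled yeast library of GFP fusions to tiled 17-residue yeast protein peptides, on a plasmid also expressing Cherry, was grown to mid-log phase in leucine-free medium. The cells were sorted into four equal gates by GFP/Cherry ratio before plasmid amplification by PCR and Illumina sequencing.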

Sequence | protein stability index (doa10∆) | protein stability index (pdr5∆) | protein stability index (san1∆) | protein stability index (ubr1∆)
TFHDELNLKFKEKWPSL [YML103C/NUP188] | 3.23 ± 0.095 | 3.57 ± 0.2 | 2.81 ± 0.082 | 3.09 ± 0.098
AAGALFVSSGFDTSIKL [RPN14] | 2.41 ± 0.052 | 2.52 ± 0.045 | 2.18 ± 0.064 | 2.49 ± 0.035
TVLVIDNSEYSRNGDFP [RPN10] | 2.44 ± 0.058 | 2.73 ± 0.066 | 1.48 ± 0.098 | 2.44 ± 0.041
MLMSKIGDVDGLIVNPV [POP5] | 2.57 ± 0.051 | 2.58 ± 0.056 | 2.47 ± 0.041 | 2.42 ± 0.04
NERELNVFARLSRLLSL [RPC82] | 2.02 ± 0.16 | 2.07 ± 0.11 | 2.79 ± 0.13 | 2.5 ± 0.06
DSNESDDDVTPSTKVAS [YLR335W/NUP2] | 3.46 ± 0.16 | 3.13 ± 0.15 | 3.26 ± 0.088 | 3.54 ± 0.12
RCFENLQNKSFKSVLPI [UBP6] | 2.35 ± 0.076 | 1.98 ± 0.09 | 2.05 ± 0.12 | 2.45 ± 0.057
KDAQKKDIEKLTNEISD [YIL149C/MLP2] | 2.54 ± 0.086 | 2.98 ± 0.07 | 2.65 ± 0.061 | 2.49 ± 0.078
CNDEDKDLETLYNKIWT [ECM29] | 3.04 ± 0.081 | 3.06 ± 0.065 | 2.44 ± 0.074 | 2.88 ± 0.037
ESESERKYDLFQNLELE [SMC2] | 3.37 ± 0.074 | 3.33 ± 0.077 | 3.35 ± 0.068 | 3.3 ± 0.072
SHTSLVKIGKFIPHGLK [SRB8] | 1.71 ± 0.053 | 1.73 ± 0.045 | 1.97 ± 0.084 | 1.55 ± 0.054
ASLALAHVFVGTCNGDI [RPN1] | 2.48 ± 0.059 | 2.61 ± 0.054 | 2.43 ± 0.077 | 2.58 ± 0.074
SPKPYAVKYGLNHVVSL [RPL8B] | 1.96 ± 0.07 | 2.09 ± 0.069 | 2.09 ± 0.092 | 1.94 ± 0.046
LLPANLLSLNSVRSLQK [SRP68] | 2.71 ± 0.059 | 2.48 ± 0.063 | 2.49 ± 0.057 | 2.81 ± 0.046
IQRTTESLILKWDNQSA [RGR1] | 3.14 ± 0.051 | 3.05 ± 0.056 | 2.36 ± 0.059 | 2.94 ± 0.05
RNKSAANNDINSLLSNF [YDL088C/ASM4] | 2.94 ± 0.15 | 3.07 ± 0.095 | 2.99 ± 0.091 | 3.02 ± 0.056
GSLKLPNCPRPNMSICI [RPL1A] | 2.62 ± 0.082 | 2.67 ± 0.05 | 2.95 ± 0.065 | 2.98 ± 0.05
QEAVNSLKGYKIENSVQ [CSI1] | 3.2 ± 0.13 | 3.29 ± 0.079 | 3.32 ± 0.051 | 3.39 ± 0.073
RQNRRPELGDKFSSRHG [RET1] | – | 3.4 ± 0.3 | – | 2.63 ± 0.21
RILAMCVKNHGQSSSIQ [YCS4] | 2.11 ± 0.055 | 1.79 ± 0.051 | 2.13 ± 0.057 | 1.94 ± 0.054
KRYTSEGTRNRFSYSPP [YMR129W/POM152] | 3.09 ± 0.088 | 3.09 ± 0.063 | 2.92 ± 0.043 | 3.09 ± 0.043
PSTRSNFILEVFGTIIP [YJL039C/NUP192] | 1.35 ± 0.085 | 1.41 ± 0.071 | 1.28 ± 0.23 | 1.35 ± 0.072
FVIGVIIGTFSDSYKVS [RRP40] | 1.43 ± 0.057 | 1.41 ± 0.068 | 2.04 ± 0.12 | 2.23 ± 0.078
DSADVPAFSNSNGFNNV [YMR153W/NUP53] | 3.1 ± 0.062 | 3.2 ± 0.067 | 3.22 ± 0.041 | 3.23 ± 0.048
HLVWMKGTNDEGTSISV [YCS4] | 1.84 ± 0.11 | 2.23 ± 0.086 | 1.9 ± 0.18 | 2.2 ± 0.17
CVHMVYEYAEHDLLQII [SSN3] | 2.26 ± 0.086 | 2.21 ± 0.089 | 2.12 ± 0.11 | 2.48 ± 0.08
PYQHPPNIFPNLTYYNE [ITC1] | 2.68 ± 0.058 | 2.83 ± 0.045 | 2.66 ± 0.045 | 2.76 ± 0.039

Sequence | protein stability index (doa10∆) | protein stability index (pdr5∆) | protein stability index (san1∆) | protein stability index (ubr1∆)
KNGKIYLKHNSIAEEIP [RET1] | 2.97 ± 0.059 | 2.81 ± 0.05 | 2.61 ± 0.074 | 2.52 ± 0.037
VVDVALKYPELSIKNSF [NUT1] | 3.04 ± 0.071 | 2.94 ± 0.056 | 2.97 ± 0.059 | 2.77 ± 0.047
QVRKKQIETINFLRLPA [YDL116W/NUP84] | 3.07 ± 0.11 | 2.89 ± 0.097 | 2.86 ± 0.07 | 2.81 ± 0.11
MQRHVKVDGKVRTDTTY [RPS4A] | 3.26 ± 0.1 | 3.28 ± 0.083 | 3.03 ± 0.088 | 3.06 ± 0.063
EQQKGQQTAQTQLEQQR [SNF5] | 3.33 ± 0.11 | 3.4 ± 0.088 | 3.22 ± 0.079 | 3.1 ± 0.053
AISKKNKSLKYVIHGIE [LIN1] | 2.02 ± 0.058 | 1.84 ± 0.053 | 2.11 ± 0.084 | 1.84 ± 0.04
SIMPDLYFYRDPEEVEQ [RPS0A] | 2.86 ± 0.082 | 2.95 ± 0.077 | 2.94 ± 0.063 | 2.85 ± 0.06
MKVEIDSFSGAKIYPGR [RPL24A] | 3.35 ± 0.072 | 3.45 ± 0.12 | 3.25 ± 0.08 | 3.22 ± 0.1
DIDAVNGAVGKREGKTR [ISW2] | 2.94 ± 0.13 | 3.47 ± 0.11 | 2.94 ± 0.1 | 3.4 ± 0.071
PSAGPHKLRESLPLIVF [RPS4A] | 1.76 ± 0.048 | 1.75 ± 0.045 | 1.69 ± 0.087 | 2.05 ± 0.046
LFPEQQNKEIKAERVED [RPL6A] | 3.61 ± 0.11 | 3.14 ± 0.1 | 3.59 ± 0.065 | 3.35 ± 0.056
NGSSDASSLRFGNSLSN [YDL088C/ASM4] | 2.77 ± 0.071 | 2.76 ± 0.075 | 2.69 ± 0.05 | 2.56 ± 0.1
PRMYHIGLRQFQQIQYE [POP1] | 2.06 ± 0.098 | 1.67 ± 0.071 | 2.25 ± 0.095 | 1.48 ± 0.1
TISILAAPSGNYKQLTL [RRP43] | 1.77 ± 0.035 | 1.94 ± 0.032 | 1.92 ± 0.058 | 1.89 ± 0.033
AAKTRSYNWGAKAKRRH [RPL37A] | 3.7 ± 0.15 | 3.39 ± 0.082 | 3 ± 0.099 | 3.49 ± 0.085
HAQSKREGRHSGYGKRK [RPL19A] | 2.8 ± 0.086 | 2.9 ± 0.08 | 2.85 ± 0.05 | 2.96 ± 0.042
PPPPGFEEDSDLALPPP [PRP8] | 3.22 ± 0.078 | 3.36 ± 0.07 | 3.19 ± 0.079 | 3.35 ± 0.057
TNKDNKAELIKPIQNGE [ARP9] | 3.34 ± 0.071 | 3.14 ± 0.083 | 3.4 ± 0.046 | 3.16 ± 0.072
EINLSKIFQTTPEKDLF [YCS4] | 2.72 ± 0.11 | 2.29 ± 0.075 | 1.5 ± 0.091 | 2.7 ± 0.055
YWKLWIDEPFNLDFDPR [FAS1] | 3.52 ± 0.12 | 2.84 ± 0.13 | – | 2.27 ± 0.15
MKEDGLSFVDIVLSKAA [SIR4] | 1.88 ± 0.1 | 2.8 ± 0.07 | 2.74 ± 0.12 | 2.22 ± 0.053
IGAVYSGMGPDYRVLVD [PRE8] | 3.67 ± 0.28 | – | 2.92 ± 0.3 | 3.38 ± 0.12
TTLKSVTIASEIYYDPD [RPO21] | 2.75 ± 0.1 | 2.45 ± 0.085 | 2.82 ± 0.099 | 2.24 ± 0.055
NNSALSNVNSDIYFKLK [RPT3] | 3.12 ± 0.14 | 2.96 ± 0.12 | 3.27 ± 0.14 | 3.25 ± 0.073
SPEGRLFQVEYSLEAIK [PUP2] | 2.37 ± 0.19 | 2.86 ± 0.1 | 2.75 ± 0.12 | 2.62 ± 0.067
ELEQLVEFNRKVVIPNL [RPN3] | 3.3 ± 0.14 | 2.77 ± 0.28 | 3.26 ± 0.071 | 3.25 ± 0.11
